Results as given in patent US20140087995A1 (published 2014).
Numbered stars: 1 amine (or outer) side, 2 acyl side, 3 side chain; on linkers, the order of the positions; unused ones are H or OH. Bridge positions count the residues as written; N and C are the ends. Side chains are listed from the residue outwards. Ends that are not written are not given here. * marks the point of attachment. C20 diacid = O=C(O)CCCCCCCCCCCCCCCCCCC(=O)*; γGlu = O=C(O)[C@H](CCC(=O)[*:2])N[*:1]

T1: human amylin receptor (amylin 3(a) receptor: human calcitonin receptor co-expressed with RAMP-3) (human, UniProt P30988 25-474; O60896 24-148, limits assumed)
T1 sequence (looked up) 1: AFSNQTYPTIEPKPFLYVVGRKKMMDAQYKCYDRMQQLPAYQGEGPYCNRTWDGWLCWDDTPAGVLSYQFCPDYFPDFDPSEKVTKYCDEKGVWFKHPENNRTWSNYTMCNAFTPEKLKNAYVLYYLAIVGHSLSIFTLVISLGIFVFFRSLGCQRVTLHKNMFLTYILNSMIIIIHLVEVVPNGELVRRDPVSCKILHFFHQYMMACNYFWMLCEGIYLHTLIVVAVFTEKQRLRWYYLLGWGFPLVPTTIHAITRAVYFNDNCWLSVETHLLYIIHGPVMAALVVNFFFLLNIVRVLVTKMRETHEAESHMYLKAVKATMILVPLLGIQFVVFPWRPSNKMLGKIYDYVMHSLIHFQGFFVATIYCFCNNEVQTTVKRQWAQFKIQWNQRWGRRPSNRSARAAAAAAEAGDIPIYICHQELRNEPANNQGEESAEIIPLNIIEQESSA
T1 sequence (looked up) 2: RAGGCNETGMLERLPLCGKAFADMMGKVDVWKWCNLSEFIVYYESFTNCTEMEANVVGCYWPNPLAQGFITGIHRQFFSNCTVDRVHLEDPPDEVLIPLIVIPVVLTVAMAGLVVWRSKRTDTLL

T2: human calcitonin receptor (human, UniProt P30988 25-474)
T2 sequence (looked up): T1 sequence (looked up) 1

B1: N^ε1-[(4S)-4-carboxy-4-(19-carboxynonadecanoylamino)butanoyl]-[Arg14,Arg17,Pro21,Pro27,Pro34]-h-amylin (peptide)
peptide: K([γGlu-C20 diacid])CNTATCATQRLARFLRHSSPNFGAIPSSTNVGPNTY-NH2
modifications: disulfide 2-7; N-terminus assumed
SMILES: CC[C@H](C)[C@H](NC(=O)[C@H](C)NC(=O)CNC(=O)[C@H](Cc1ccccc1)NC(=O)[C@H](CC(N)=O)NC(=O)[C@@H]1CCCN1C(=O)[C@H](CO)NC(=O)[C@H](CO)NC(=O)[C@H](Cc1c[nH]cn1)NC(=O)[C@H](CCCNC(=N)N)NC(=O)[C@H](CC(C)C)NC(=O)[C@H](Cc1ccccc1)NC(=O)[C@H](CCCNC(=N)N)NC(=O)[C@H](C)NC(=O)[C@H](CC(C)C)NC(=O)[C@H](CCCNC(=N)N)NC(=O)[C@H](CCC(N)=O)NC(=O)[C@@H](NC(=O)[C@H](C)NC(=O)[C@@H]1CSSC[C@H](NC(=O)[C@@H](N)CCCCNC(=O)CC[C@H](NC(=O)CCCCCCCCCCCCCCCCCCC(=O)O)C(=O)O)C(=O)N[C@@H](CC(N)=O)C(=O)N[C@@H]([C@@H](C)O)C(=O)N[C@@H](C)C(=O)N[C@@H]([C@@H](C)O)C(=O)N1)[C@@H](C)O)C(=O)N1CCC[C@H]1C(=O)N[C@@H](CO)C(=O)N[C@@H](CO)C(=O)N[C@H](C(=O)N[C@@H](CC(N)=O)C(=O)N[C@H](C(=O)NCC(=O)N1CCC[C@H]1C(=O)N[C@@H](CC(N)=O)C(=O)N[C@H](C(=O)N[C@@H](Cc1ccc(O)cc1)C(N)=O)[C@@H](C)O)C(C)C)[C@@H](C)O
notes: also called compound 65
B2: N^ε1-[(4S)-4-carboxy-4-(19-carboxynonadecanoylamino)butanoyl]-[Arg17,Pro21,Pro27,His34]-h-amylin (peptide)
peptide: K([γGlu-C20 diacid])CNTATCATQRLANFLRHSSPNFGAIPSSTNVGHNTY-NH2
modifications: disulfide 2-7; N-terminus assumed
SMILES: CC[C@H](C)[C@H](NC(=O)[C@H](C)NC(=O)CNC(=O)[C@H](Cc1ccccc1)NC(=O)[C@H](CC(N)=O)NC(=O)[C@@H]1CCCN1C(=O)[C@H](CO)NC(=O)[C@H](CO)NC(=O)[C@H](Cc1c[nH]cn1)NC(=O)[C@H](CCCNC(=N)N)NC(=O)[C@H](CC(C)C)NC(=O)[C@H](Cc1ccccc1)NC(=O)[C@H](CC(N)=O)NC(=O)[C@H](C)NC(=O)[C@H](CC(C)C)NC(=O)[C@H](CCCNC(=N)N)NC(=O)[C@H](CCC(N)=O)NC(=O)[C@@H](NC(=O)[C@H](C)NC(=O)[C@@H]1CSSC[C@H](NC(=O)[C@@H](N)CCCCNC(=O)CC[C@H](NC(=O)CCCCCCCCCCCCCCCCCCC(=O)O)C(=O)O)C(=O)N[C@@H](CC(N)=O)C(=O)N[C@@H]([C@@H](C)O)C(=O)N[C@@H](C)C(=O)N[C@@H]([C@@H](C)O)C(=O)N1)[C@@H](C)O)C(=O)N1CCC[C@H]1C(=O)N[C@@H](CO)C(=O)N[C@@H](CO)C(=O)N[C@H](C(=O)N[C@@H](CC(N)=O)C(=O)N[C@H](C(=O)NCC(=O)N[C@@H](Cc1c[nH]cn1)C(=O)N[C@@H](CC(N)=O)C(=O)N[C@H](C(=O)N[C@@H](Cc1ccc(O)cc1)C(N)=O)[C@@H](C)O)C(C)C)[C@@H](C)O
notes: also called compound 77
B3: N^ε1-[(4S)-4-carboxy-4-(19-carboxynonadecanoylamino)butanoyl]-[Glu14,Arg17,Pro21,Pro27,Arg35]-h-amylin (peptide)
peptide: K([γGlu-C20 diacid])CNTATCATQRLAEFLRHSSPNFGAIPSSTNVGSRTY-NH2
modifications: disulfide 2-7; N-terminus assumed
SMILES: CC[C@H](C)[C@H](NC(=O)[C@H](C)NC(=O)CNC(=O)[C@H](Cc1ccccc1)NC(=O)[C@H](CC(N)=O)NC(=O)[C@@H]1CCCN1C(=O)[C@H](CO)NC(=O)[C@H](CO)NC(=O)[C@H](Cc1c[nH]cn1)NC(=O)[C@H](CCCNC(=N)N)NC(=O)[C@H](CC(C)C)NC(=O)[C@H](Cc1ccccc1)NC(=O)[C@H](CCC(=O)O)NC(=O)[C@H](C)NC(=O)[C@H](CC(C)C)NC(=O)[C@H](CCCNC(=N)N)NC(=O)[C@H](CCC(N)=O)NC(=O)[C@@H](NC(=O)[C@H](C)NC(=O)[C@@H]1CSSC[C@H](NC(=O)[C@@H](N)CCCCNC(=O)CC[C@H](NC(=O)CCCCCCCCCCCCCCCCCCC(=O)O)C(=O)O)C(=O)N[C@@H](CC(N)=O)C(=O)N[C@@H]([C@@H](C)O)C(=O)N[C@@H](C)C(=O)N[C@@H]([C@@H](C)O)C(=O)N1)[C@@H](C)O)C(=O)N1CCC[C@H]1C(=O)N[C@@H](CO)C(=O)N[C@@H](CO)C(=O)N[C@H](C(=O)N[C@@H](CC(N)=O)C(=O)N[C@H](C(=O)NCC(=O)N[C@@H](CO)C(=O)N[C@@H](CCCNC(=N)N)C(=O)N[C@H](C(=O)N[C@@H](Cc1ccc(O)cc1)C(N)=O)[C@@H](C)O)C(C)C)[C@@H](C)O
notes: also called compound 51
B4: N^ε1-[(4S)-4-carboxy-4-(19-carboxynonadecanoylamino)butanoyl]-[Arg17,Pro21,Pro27,His35]-h-amylin (peptide)
peptide: K([γGlu-C20 diacid])CNTATCATQRLANFLRHSSPNFGAIPSSTNVGSHTY-NH2
modifications: disulfide 2-7; N-terminus assumed
SMILES: CC[C@H](C)[C@H](NC(=O)[C@H](C)NC(=O)CNC(=O)[C@H](Cc1ccccc1)NC(=O)[C@H](CC(N)=O)NC(=O)[C@@H]1CCCN1C(=O)[C@H](CO)NC(=O)[C@H](CO)NC(=O)[C@H](Cc1c[nH]cn1)NC(=O)[C@H](CCCNC(=N)N)NC(=O)[C@H](CC(C)C)NC(=O)[C@H](Cc1ccccc1)NC(=O)[C@H](CC(N)=O)NC(=O)[C@H](C)NC(=O)[C@H](CC(C)C)NC(=O)[C@H](CCCNC(=N)N)NC(=O)[C@H](CCC(N)=O)NC(=O)[C@@H](NC(=O)[C@H](C)NC(=O)[C@@H]1CSSC[C@H](NC(=O)[C@@H](N)CCCCNC(=O)CC[C@H](NC(=O)CCCCCCCCCCCCCCCCCCC(=O)O)C(=O)O)C(=O)N[C@@H](CC(N)=O)C(=O)N[C@@H]([C@@H](C)O)C(=O)N[C@@H](C)C(=O)N[C@@H]([C@@H](C)O)C(=O)N1)[C@@H](C)O)C(=O)N1CCC[C@H]1C(=O)N[C@@H](CO)C(=O)N[C@@H](CO)C(=O)N[C@H](C(=O)N[C@@H](CC(N)=O)C(=O)N[C@H](C(=O)NCC(=O)N[C@@H](CO)C(=O)N[C@@H](Cc1c[nH]cn1)C(=O)N[C@H](C(=O)N[C@@H](Cc1ccc(O)cc1)C(N)=O)[C@@H](C)O)C(C)C)[C@@H](C)O
notes: also called compound 60

Experiments:
[1] = molecular target: T1, human amylin receptor (amylin 3(a) …); experiment: cell-based or functional assay
[2] = molecular target: T2, human calcitonin receptor; experiment: cell-based or functional assay

Row | hAmylin-R funct. EC50 [1] [pM] | Ratio hCT/hAmylin funct. (hCTR EC50 against hAmylin-R EC50) [2] | hCTR funct. EC50 [2] [nM] | Binder
1 | 242 | 38.6 | 9.33 | B1
2 | 145 | 37.3 | 5.4 | B2
3 | 372 | 14 | 5.22 | B3
4 | 351 | 15.3 | 5.36 | B4
